According to US10247735B2, “Compositions and methods for regulating glucose metabolism” (The J. David Gladstone Institutes, priority 2011, dated 2019):

Tests used:
[1] = target: T1, p75^NTR ICD (Homo sapiens, UniProt P08138); assay: Peptide array of Rab31 peptides with GST-p75^NTR ICD; format: binding; conditions: peptide array of overlapping Rab31 peptides, 1 μg/ml GST-p75^NTR ICD
T1 construct: peptide array data of Rab31 peptides with p75^NTR intracellular domain (ICD)
T1 sequence (P08138 273-427 limits assumed): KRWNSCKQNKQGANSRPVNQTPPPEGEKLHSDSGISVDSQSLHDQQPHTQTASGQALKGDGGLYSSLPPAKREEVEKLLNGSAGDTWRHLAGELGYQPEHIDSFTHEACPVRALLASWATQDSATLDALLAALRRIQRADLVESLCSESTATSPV
Protocol: Peptide arrays were manufactured by Kinexus Bioinformatics Corporation (Vancouver, Canada). Synthetic overlapping peptides (25 amino acids in length) for Rab31 were spotted on nitrocellulose membranes. Membranes were overlaid with 1 μg/ml recombinant GST-p75^NTR ICD. Bound recombinant GST-p75ICD were detected using rabbit anti-p75^NTR (1:1000, Millipore) followed by secondary anti-rabbit horseradish peroxidase antibody (1:5000, Cell Signaling).

[2] = target: T2, Rab31 (Homo sapiens, UniProt Q13636); assay: Peptide array mapping of p75ICD peptides with GST-Rab31; format: binding; conditions: peptide array of overlapping p75ICD peptides, 1 μg/ml GST-Rab31
T2 sequence (Q13636 1-195): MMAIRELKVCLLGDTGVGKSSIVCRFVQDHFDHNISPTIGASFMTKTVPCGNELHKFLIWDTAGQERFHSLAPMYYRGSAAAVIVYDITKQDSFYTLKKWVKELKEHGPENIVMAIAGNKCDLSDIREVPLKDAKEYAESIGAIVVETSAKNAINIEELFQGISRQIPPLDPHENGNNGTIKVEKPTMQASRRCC
Protocol: (§1) Peptide arrays were manufactured by Kinexus Bioinformatics Corporation (Vancouver, Canada). Synthetic overlapping peptides (25 amino acids in length) for p75ICD were spotted on nitrocellulose membranes. Membranes were overlaid with 1 μg/ml recombinant GST-Rab31, GST-Rab5 and p75^NTR ICD. Bound recombinant GST-Rab31 and GST-Rab5 were detected using rabbit anti-GST (1:1000, Cell Signaling) and bound recombinant p75ICD was detected using rabbit anti-p75^NTR (1:1000, Millipore) followed by secondary anti-rabbit horseradish peroxidase antibody (1:5000, Cell Signaling).

[3] = system: Rab5; assay: Peptide array mapping of p75ICD peptides with GST-Rab5; format: binding; conditions: peptide array of overlapping p75ICD peptides, 1 μg/ml GST-Rab5
Protocol: as §1

[4] = system: 3T3L1 adipocytes; assay: Glucose uptake assay in 3T3L1 adipocytes; format: cell-based, mouse; conditions: for glucose uptake: addition of neurotrophin ligand, 100 ng/ml NGF or 50 ng/ml BDNF; for basal and insulin-stimulated glucose uptake: neurotrophin treatment for 1 h before insulin stimulation
Protocol: 3T3L1 cells were maintained in DMEM containing 10% bovine serum. All media were supplemented with 1% penicillin/streptomycin (Invitrogen). Mouse embryonic fibroblasts (MEFs) were isolated from wild-type (WT) and p75^NTR−/− embryos as described (5). Briefly, heads and internal organs were removed from E12-14 embryos, and the remaining embryo was minced with scissors. Ten ml of ice cold phosphate-buffered saline (PBS) was added and minced embryos were centrifuged for 5 minutes at 500×g. Each embryo was resuspended in 7.5 ml Trypsin-EDTA for 20 minutes at 37° C. with occasional shaking. After trypsin deactivation by 7.5 ml DMEM with 10% FBS the suspension was poured through a 70 μm filter and cells were cultured in DMEM with 10% fetal bovine serum (FBS). Differentiation of 3T3L1 cells and MEFs was performed as described (6). Briefly, differentiation was induced by incubating confluent monolayers for 3 days in DMEM containing 10% fetal bovine serum (FBS), 0.5 mM 3-isobutyl-1-methylxanthine, 0.4 μg/ml dexamethasone, and 1 μg/ml of insulin. Medium was replaced every 2 days with DMEM containing 10% FBS. After 8-12 days, 75% of the cells expressed the adipocyte phenotype as assessed by Oil Red O. Isolation of primary adipocytes from epididymal fat pads was performed as described (7). Briefly, fat pads were minced in Krebs-Ringer Bicarbonate-Hepes (KRBH) buffer, pH 7.4, treated with collagenase (Invitrogen) for 40 min, filtered through a nylon strainer and centrifuged at 400×g for 1 minute. Fully-differentiated adipocytes were transfected by electroporation using Amaxa Cell Line Nucleofector kit L (Lonza) following manufacturer's instructions. For p75^NTR knockdown experiments, 3T3L1 cells were differentiated for 6-8 days and infected with lentivirus encoding a short hairpin shRNA for mouse p75^NTR (8) and L6 myocytes were transfected with siGENOME SMART pool for rat p75^NTR (Thermo Scientific).
Fully differentiated 3T3L1 adipocytes and eight day differentiated WT and p75^NTR−/− MEFs were serum-starved for 3 hrs in DMEM and then equilibrated in Hepes/Salt (H/S) buffer for 30 min prior to treatment with 100 nM insulin for 30 min at 37° C. Thirty min after the addition of insulin, [^3H]-2-deoxyglucose (Amersham) and 2 mM 2-deoxyglucose (Sigma) in H/S buffer was added. After incubation at 37° C. for 10 min, the reactions were terminated by washing twice with ice-cold PBS. Cells were lysed in 1 M NaOH for 30 min at room temperature. An equal volume of 1 M HCl was added and incorporated radioactivity was measured by liquid scintillation counting. […] The fat cells were isolated and the level of radioactivity was counted. […]

Row | Molecule | binding to p75^NTR ICD [1] | interaction with Rab31-GST [2] | interaction with Rab5-GST [3] | glucose uptake [4] | basal and insulin-stimulated glucose uptake [4]
1 | EHGPENIVMAIAGNK [Peptide 6] | binds | – | – | – | –
2 | LLASWATQDSATLDA [peptide 7, p75^NTR ICD death-domain peptide, aa 386-400, helix 4 and region between helixes 4 and 5] | – | strongest interactions | strongest interactions | – | –
3 | NGF: p75^NTR neurotrophin ligand, nerve growth factor (Peprotech) | – | – | – | did not affect | No statistically significant differences
4 | BDNF: p75^NTR neurotrophin ligand, brain-derived neurotrophic factor (Peprotech) (protein, UniProt P23560 19-247, looked up) Neurotrophic factor BDNF …: APMKEANIRGQGGLAYPGVRTHGTLESVNGPKAGSRGLTSLADTFEHVIEELLDEDQKVRPNEENNKDADLYTSRVMLSSQVPLEPPLLFLLEEYKNYLDAANMSMRVRRHSDPARRGELSVCDSISEWVTAADKKTAVDMSGGTVTVLEKVPVSKGQLKQYFYETKCNPMGYTKEGCRGIDKRHWNSQCRTTQSYVRALTMDSKKRIGWRFIRIDTSCVCTLTIKRGR | – | – | – | did not affect | No statistically significant differences
